Values belong to the binder of their own block, whether it stands above or below them.
Key:
[1] = molecular target: HSP70-GFP (full-length HSP70 fused to GFP) (human) (UniProt P0DMV8); assay: cell-based or functional assay
[2] = molecular target: HSP70 (human HSP70; the antigen of the binning, humanization and variant binding assays) (human) (UniProt P0DMV8); assay: BLI, anti-human Fc capture, antigen 100 nM
HSP70 (human HSP70; the antigen of the binning, humanization and variant binding assays) (human), sequence (P0DMV8 whole entry, change not shown): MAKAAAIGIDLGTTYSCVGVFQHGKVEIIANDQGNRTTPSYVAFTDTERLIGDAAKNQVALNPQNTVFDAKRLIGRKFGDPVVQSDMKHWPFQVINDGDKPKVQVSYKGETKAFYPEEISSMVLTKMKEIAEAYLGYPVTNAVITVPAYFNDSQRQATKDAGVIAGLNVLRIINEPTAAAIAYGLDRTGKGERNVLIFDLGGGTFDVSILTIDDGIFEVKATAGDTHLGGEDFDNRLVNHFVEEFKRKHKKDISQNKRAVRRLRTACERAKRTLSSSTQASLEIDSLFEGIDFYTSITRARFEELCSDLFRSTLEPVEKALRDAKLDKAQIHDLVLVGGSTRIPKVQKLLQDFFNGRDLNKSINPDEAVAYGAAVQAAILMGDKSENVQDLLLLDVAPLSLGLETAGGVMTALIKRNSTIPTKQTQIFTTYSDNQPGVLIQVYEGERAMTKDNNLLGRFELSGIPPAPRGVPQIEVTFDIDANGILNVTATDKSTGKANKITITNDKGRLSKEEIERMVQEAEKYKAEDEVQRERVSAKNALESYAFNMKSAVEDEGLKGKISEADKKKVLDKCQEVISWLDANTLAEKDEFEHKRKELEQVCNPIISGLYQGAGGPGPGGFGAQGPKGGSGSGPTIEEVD

HSP70-GFP (full-length HSP70 fused to GFP) (human), sequence (P0DMV8 whole entry, the tested form may be a part): as the sequence (P0DMV8 whole entry, change not shown) above

- % live cells GFP positive, DC3.2 cells [1]: 78.3%
- % live cells GFP positive, MH-S cells [1]: 66%
B1: murine 77A in a murine IgG2a format (antibody, V domains shown)
VH: QIQLVQSGPELKKPGETVKISCKASGYTFTNYGMNWVKQAPGKGLKWMGWINTYTGEPTYADDFKGRFAFSLETSATTAYLQINNLKNEDTATYFCARYDHAMDYWGQGTSVTVSS
VL: DIVMSQSPSSLAVSAGEKVTMSCKSSQSLLNSGTRKNYLAWYQQKPGQSPKLLIYWTSTRESGVPDRFTGSGSGTDFTLTINSVQAEDLAVYYCKQSYTLYTFGGGTKLEIK

- % GFP positivity, DC3.2 cells [1]: 4.85%
- % GFP positivity, MH-S cells [1]: 16%
B2: murine 77A in a murine IgG2b format (antibody, V domains shown)
VH: B1 VH
VL: B1 VL

- % Diss [2]: -80.5%
- X = 610 [2]: 0.0256 nM
- X = 1495 [2]: 0.0462 nM
B3: h77A-1.32 (antibody, V domains shown)
VH: QIQLVQSGAEVKKPGASVKVSCKASGYTFTNYGMNWVRQAPGQGLEWMGWINTYTGEPRYADDFKGRFTFTTDTSTSTAYMELRSLRSDDTAVYFCARYDHDMDYWGQGTLVTVSS
VL: EIVLTQSPDSLAVSLGERATINCKSSQSLLNSGTRKNYLAWYQQKAGQSPKLLIYWTSTRESGVPDRFSGSGSGTDFTLTIDSLQAEDVAVYYCKQSYTLYTFGGGTKVEIK

From US20250084155A1
